Common to all, as to experiment: Crosslinking/co-immunoprecipitation/mass spectrometry (TMT quantitative proteomics) to identify irisin receptors
Holding throughout (assay type): binding

Experiment [1] addresses T1, MLO-Y4 cell surface proteins (Mus musculus, UniProt G3X9C2).
T1 construct: endogenous in cells; host or cells: MLO-Y4
T1 sequence (G3X9C2 1-266): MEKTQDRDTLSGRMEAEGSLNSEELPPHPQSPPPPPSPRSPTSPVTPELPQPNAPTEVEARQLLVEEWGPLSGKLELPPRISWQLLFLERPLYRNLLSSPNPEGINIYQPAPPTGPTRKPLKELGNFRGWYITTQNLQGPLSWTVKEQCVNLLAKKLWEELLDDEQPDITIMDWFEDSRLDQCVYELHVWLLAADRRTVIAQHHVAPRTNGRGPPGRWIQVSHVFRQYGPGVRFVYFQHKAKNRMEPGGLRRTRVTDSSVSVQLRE
Conditions: co-precipitated protein Nccrp1 (FBX50_MOUSE). The method in brief: (§1)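 Mouse MLO-Y4 cells were switched to serum-free FreeStyle medium for 4 h, chilled, then exposed to 10 nM His-tagged irisin (or adipsin as control) for 20 min. Cells were crosslinked with 1.5 mM DTSSP (30 min, ice), and bound proteins were pulled down on Ni-NTA and eluted with 250 mM imidazole. Eluates were separated by SDS-PAGE, trypsin-digested in gel, TMT 6-plex labelled and quantified by MS3-based LC-MS/MS on an Orbitrap Fusion Lumos.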

Experiment [2] concerns the target T2, MLO-Y4 cell surface proteins (Mus musculus, UniProt Q921G7).
T2 construct: endogenous in cells; host or cells: MLO-Y4
T2 sequence (Q921G7 33-616): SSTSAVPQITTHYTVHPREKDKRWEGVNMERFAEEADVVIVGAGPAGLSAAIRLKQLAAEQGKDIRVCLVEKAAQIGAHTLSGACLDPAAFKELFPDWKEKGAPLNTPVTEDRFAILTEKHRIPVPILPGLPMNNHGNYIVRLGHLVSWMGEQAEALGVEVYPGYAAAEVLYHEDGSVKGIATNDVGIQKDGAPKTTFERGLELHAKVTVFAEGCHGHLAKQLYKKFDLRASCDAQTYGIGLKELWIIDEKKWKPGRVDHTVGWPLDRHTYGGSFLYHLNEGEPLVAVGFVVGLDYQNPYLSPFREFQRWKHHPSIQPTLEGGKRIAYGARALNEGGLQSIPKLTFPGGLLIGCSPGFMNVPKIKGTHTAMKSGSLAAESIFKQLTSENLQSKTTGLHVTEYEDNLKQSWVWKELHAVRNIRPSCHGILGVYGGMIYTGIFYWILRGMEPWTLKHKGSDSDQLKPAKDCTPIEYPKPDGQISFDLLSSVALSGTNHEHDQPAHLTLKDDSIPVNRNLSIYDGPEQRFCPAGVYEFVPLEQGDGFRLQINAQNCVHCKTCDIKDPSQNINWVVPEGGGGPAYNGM
Particulars: co-precipitated protein Etfdh (ETFD_MOUSE). In outline:
as §1

In experiment [3] the target is T3, MLO-Y4 cell surface proteins (Mus musculus, UniProt Q9D125).
T3 construct: endogenous in cells; host or cells: MLO-Y4
Conditions: co-precipitated protein Mrps25 (RT25_MOUSE). The method in brief:
as §1

On to adipsin, for which the TMT signal-to-noise ratio was determined as 113.564 in experiment [1], 57.6477 in experiment [2] and 84.7592 in experiment [3].

Values taken from US20210063414A1, “METHODS FOR PREVENTING AND/OR TREATING BONE LOSS CONDITIONS BY MODULATING IRISIN” (Dana-Farber Cancer Institute, Inc., priority 2018, published 2021).
